Molecular target: T1, GST-RPA1a (Arabidopsis thaliana, UniProt Q9SKI4 1-640)
T1 sequence (looked up): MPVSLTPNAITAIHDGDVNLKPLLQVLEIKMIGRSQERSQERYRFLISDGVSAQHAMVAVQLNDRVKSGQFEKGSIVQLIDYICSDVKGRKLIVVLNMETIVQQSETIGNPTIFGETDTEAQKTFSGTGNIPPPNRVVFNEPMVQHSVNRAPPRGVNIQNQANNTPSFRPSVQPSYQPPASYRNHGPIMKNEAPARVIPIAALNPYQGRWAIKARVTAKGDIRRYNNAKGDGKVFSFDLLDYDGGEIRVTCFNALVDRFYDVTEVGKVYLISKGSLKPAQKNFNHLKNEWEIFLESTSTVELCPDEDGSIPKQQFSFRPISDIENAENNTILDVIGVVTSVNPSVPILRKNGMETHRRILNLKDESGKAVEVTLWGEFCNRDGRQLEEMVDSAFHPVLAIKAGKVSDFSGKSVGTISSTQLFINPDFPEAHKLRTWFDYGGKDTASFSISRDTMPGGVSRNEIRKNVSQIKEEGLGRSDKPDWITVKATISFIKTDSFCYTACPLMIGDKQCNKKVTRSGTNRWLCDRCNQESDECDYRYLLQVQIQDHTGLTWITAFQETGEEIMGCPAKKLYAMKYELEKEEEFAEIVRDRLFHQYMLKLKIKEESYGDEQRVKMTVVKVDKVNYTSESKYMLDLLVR
Test: pull-down

binding result: binds
B1: His-Sumo-HEI10 (natural protein, Arabidopsis thaliana, UniProt F4HRI2 1-304, looked up)
chain: MRCNACWRDLEGRAISTTCGHLLCTEDASKILSNDGACPICDQVLSKSLMKPVDINPNEEWINMAMAGISPQILMKSAYRSVMFYIAQRDLEMQYKMNRVVAQCRQKCEGMQAKFSEKMEQVHTAYQKMGKRCQMMEQEVENLTKDKQELQEKFSEKSRQKRKLDEMYDQLRSEYESVKRTAIQPANNFYPRHQEPDFFSNPAVNMMENRETIRKDRSFFSPATPGPKDEIWPARQNSSNSGPFDISTDSPAIPSDLGNRRAGRGHPVYGGGGTANPQSTLRNLILSPIKRSQLSRSRPQLFTL

Reference: paper PMC10756261 (Proceedings of the National Academy of Sciences of the …, 2023)
